The record followed here is patent publication US20180030118A1.

Experiment in all cases: ELISA, GP coated 200 ng/well, mAb at 2 ug/mL; negative control
Assay [1] concerns the target MARV Ravn GPe (Marburg virus, strain Ravn) (UniProt Q1PDC7).
For assay [2], the target named is MARV Musoke GPe (Marburg virus, strain Musoke) (UniProt P35253).
The target in assay [3] is MARV Angola GPe (Marburg virus, strain Angola) (UniProt Q1PD50).
Chain of MARV Angola GPe (Marburg virus, strain Angola) (Q1PD50 19-648): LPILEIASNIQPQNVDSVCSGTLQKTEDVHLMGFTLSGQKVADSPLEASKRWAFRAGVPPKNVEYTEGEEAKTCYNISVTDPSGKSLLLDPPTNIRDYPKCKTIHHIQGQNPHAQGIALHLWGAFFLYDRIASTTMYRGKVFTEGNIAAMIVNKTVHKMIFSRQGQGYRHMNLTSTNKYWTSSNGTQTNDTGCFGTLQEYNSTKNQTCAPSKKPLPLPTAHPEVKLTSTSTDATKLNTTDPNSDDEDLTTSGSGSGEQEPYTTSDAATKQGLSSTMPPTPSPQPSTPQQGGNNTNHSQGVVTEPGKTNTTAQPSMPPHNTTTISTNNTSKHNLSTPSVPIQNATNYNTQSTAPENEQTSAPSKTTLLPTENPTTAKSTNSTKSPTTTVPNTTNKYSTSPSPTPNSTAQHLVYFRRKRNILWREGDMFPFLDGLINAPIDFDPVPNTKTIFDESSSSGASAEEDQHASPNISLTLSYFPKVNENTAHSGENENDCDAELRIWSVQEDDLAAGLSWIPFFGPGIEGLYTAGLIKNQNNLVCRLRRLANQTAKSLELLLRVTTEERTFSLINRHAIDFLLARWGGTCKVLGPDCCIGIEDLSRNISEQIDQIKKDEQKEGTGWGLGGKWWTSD

Chain of MARV Ravn GPe (Marburg virus, strain Ravn) (Q1PDC7 19-648): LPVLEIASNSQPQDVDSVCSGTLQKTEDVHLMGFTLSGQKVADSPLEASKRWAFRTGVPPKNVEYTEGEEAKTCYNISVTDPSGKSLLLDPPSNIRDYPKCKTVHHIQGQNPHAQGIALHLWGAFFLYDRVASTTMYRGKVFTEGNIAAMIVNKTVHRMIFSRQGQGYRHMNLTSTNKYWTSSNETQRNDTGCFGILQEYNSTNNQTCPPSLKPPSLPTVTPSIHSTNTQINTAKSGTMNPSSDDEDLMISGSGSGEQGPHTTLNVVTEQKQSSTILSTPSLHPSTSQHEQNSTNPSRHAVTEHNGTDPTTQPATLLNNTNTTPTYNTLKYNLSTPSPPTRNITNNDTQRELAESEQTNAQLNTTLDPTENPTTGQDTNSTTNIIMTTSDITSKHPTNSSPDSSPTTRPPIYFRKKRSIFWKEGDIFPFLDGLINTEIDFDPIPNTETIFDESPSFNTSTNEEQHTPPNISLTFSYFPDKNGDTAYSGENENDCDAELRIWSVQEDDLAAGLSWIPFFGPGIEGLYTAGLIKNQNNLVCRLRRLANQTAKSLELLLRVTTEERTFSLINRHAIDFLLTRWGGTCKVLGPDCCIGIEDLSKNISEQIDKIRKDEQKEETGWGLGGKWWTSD
Chain of MARV Musoke GPe (Marburg virus, strain Musoke) (P35253 19-648): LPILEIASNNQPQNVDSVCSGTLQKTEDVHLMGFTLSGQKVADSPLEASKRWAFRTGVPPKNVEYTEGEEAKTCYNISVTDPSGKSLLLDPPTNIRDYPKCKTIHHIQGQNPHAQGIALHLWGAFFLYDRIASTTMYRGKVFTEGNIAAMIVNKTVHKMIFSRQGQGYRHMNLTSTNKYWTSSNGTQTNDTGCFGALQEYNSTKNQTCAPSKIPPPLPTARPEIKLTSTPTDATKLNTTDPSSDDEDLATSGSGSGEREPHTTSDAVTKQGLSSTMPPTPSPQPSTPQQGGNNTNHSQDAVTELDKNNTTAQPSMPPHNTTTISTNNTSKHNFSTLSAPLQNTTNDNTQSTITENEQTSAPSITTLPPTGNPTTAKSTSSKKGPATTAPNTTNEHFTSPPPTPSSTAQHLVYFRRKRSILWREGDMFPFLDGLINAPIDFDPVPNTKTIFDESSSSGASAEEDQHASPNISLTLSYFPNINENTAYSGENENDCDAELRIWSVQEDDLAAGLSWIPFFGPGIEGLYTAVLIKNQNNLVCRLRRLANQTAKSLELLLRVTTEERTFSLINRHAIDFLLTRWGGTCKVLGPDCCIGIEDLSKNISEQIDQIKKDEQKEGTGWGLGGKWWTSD

In the case of IgG Neg Control (human) (antibody), the OD405 @ 30 min in assay [1] came to 0.052 OD405; in assay [2], 0.056 OD405; in assay [3], 0.054 OD405.

With IgG Neg Control (murine) (antibody), the OD405 @ 30 min in assay [1] was found to be 0.049 OD405; in assay [2] it was 0.049 OD405; in assay [3] it was 0.047 OD405.
